Test results taken from article PMC7021776, “Heme binding of transmembrane signaling proteins undergoing regulated intramembrane proteolysis” (Communications Biology, 2020).

Target: the molecule itself
Assay: SEC; gel filtration of purified MBP fusion proteins, Superose 6 Increase 10/300 GL, 4 °C, TN buffer (50 mM Tris/HCl pH 7.4, 150 mM NaCl) with 0.1% Triton X-100; growth medium with or without δ-aminolevulinic acid

B1: TNFα-NTF(1–51) (domain or fragment, human, UniProt P01375 1-51, looked up)
chain: MSTESMIRDVELAEEALPKKTGGPQGSRRCLFLSLFSFLIVAGATTLFCLL
notes: The text names it without MBP; source: E. coli NEB Express (pMalC5X), membrane fraction solubilised with Triton X-100, purified (amylose); not shown: MBP, N-terminal, kept
binding result: binds

B2: MBP-TNFα-NTF(1–76) (domain or fragment, human, UniProt P01375 1-76, looked up)
chain: MSTESMIRDVELAEEALPKKTGGPQGSRRCLFLSLFSFLIVAGATTLFCLLHFGVIGPQREEFPRDLSLISPLAQA
notes: also called TNFα-NTF(1–76) wt; MBP-TNFα(1–76); source: E. coli NEB Express (pMalC5X), membrane fraction solubilised with Triton X-100, purified (amylose); not shown: MBP, N-terminal, kept
stoichiometry N: 3

B3: TNFα-NTF(1–47) (domain or fragment, human, UniProt P01375 1-47, looked up)
chain: MSTESMIRDVELAEEALPKKTGGPQGSRRCLFLSLFSFLIVAGATTL
notes: as for B1
stoichiometry N: 2
